# Laboratory results: patent publication US10577406B2, “FKBP-L polypeptides and uses in angiogenesis-mediated disorders” (ALMAC DISCOVERY LIMITED, priority 2006, dated 2020)
# Where two headings read alike, the source gives them in different places.
# Tests used:
# [1] = tested on: rat aortic ring; type: cell-based, Male Wistar rats
# Experimental: Male Wistar rats were euthanised and the thoracic aorta was aseptically removed and sectioned into 1 cm thick rings. The rings were washed ten times in sterile medium to remove any bacteria and embedded into Matrigel on 24 well plates. The wells were supplemented with 2 ml of medium and increasing concentrations of full-length His-tagged recombinant FKBP-L protein (SEQ ID 1). The plate was incubated for 8 days and post incubation the Matrigel and rings were fixed in 4% PBS buffered paraformaldehyde and stored in PBS. The extent of vessel development was blindly assessed microscopically by an independent investigator and quantified using a calibrated eyepiece graticule (1 mm/100 μm graduation) at 20× magnification (Olympus BX 50). The extent of vessel length, maximum vessel length and number of vessels in each field of view was measured and compared to time matched sham controls and the percent (%) inhibition calculated. Male Wistar rats were euthanised and the thoracic aorta was aseptically removed and sectioned into 1 cm thick rings. The rings were washed ten times in sterile medium to remove any bacteria and embedded into Matrigel on 24 well plates. The wells were supplemented with 2 ml of medium and increasing concentrations of FKBP-L 24mer (SEQ ID NO: 10) and FKBP-L 1-57mer (SEQ ID NO: 6) and recombinant FKBP-L (SEQ ID NO:1). The plate was blindly assessed by an independent investigator and quantified using a calibrated eyepiece graticule (1 mm/100 μm graduation) at 20× magnification (Olympus BX 50). The extent of vessel length, maximum vessel length and number of vessels in each field of view was measured and compared to time matched sham controls and the % inhibition calculated. In order to determine whether the FKBP-L 24mer exerted a permanent or static effect on endothelial cell sprouting the rat aortic ring assay was used. Male Wistar rats were euthanised and the thoracic aorta was aseptically removed and sectioned into 1 cm thick rings. The rings were washed ten times in sterile medium to remove any bacteria and embedded into Matrigel on 24 well plates. The wells were supplemented with 2 ml of medium. The plates were incubated for up to 15 days. Each day the Matrigel rings were photographed and returned to their incubator. Two further experiments were carried out: (A) addition of FKBP-L 24mer to the medium after the vessels had grown for seven days; and (B) addition of FKBP-L 24mer to the medium at the initial embedding stage, with subsequent removal after seven days and replacement with fresh medium for a further seven days. The extent of vessel development was quantified using a calibrated eyepiece graticule (1 mm/100 μm graduation) at 20× magnification (Olympus BX 50), and measured electronically using Lucia imaging software. Vessel length was measured and compared to time matched sham controls and the percent (%) inhibition calculated.
# [2] = tested on: PC3 (prostate tumor cell line; CD44 +ve); experiment: tumor cell migration, wound closure assay, PC3; type: cell-based; conditions: for effect on tumor cell migration: PC3
# Experimental: In these experiments, the effect of recombinant FKBP-L on tumor cell migration was assessed. The in vitro migration assay used in these studies is a modified version of the method described by Ashton et al (1999) see supra. PC3, MDA231, and HT29 tumor cells were plated into individual chambers on a glass slide and grown to 90% confluence overnight. The medium was removed and the monolayers wounded. The monolayer was re-supplemented with fresh medium and the required volume of His-tagged recombinant FKBP-L protein (SEQ ID NO: 1) was added to give the final concentrations shown. The monolayers were incubated for 24 hours and then fixed in 4% PBS buffered paraformaldehyde.
# The extent of “wound” closure was blindly assessed microscopically by an independent investigator and quantified using a calibrated eyepiece graticule (1 mm/100 μm graduation) at 20× magnification (Olympus BX 50). The extent of closure in the FKBP-L treated slides was compared to time matched sham-treated controls and the percent inhibition of wound closure compared to time matched controls calculated.
# The in vitro migration assay used in these studies is a modified version of the method described by Ashton et al. (1999) see supra. PC3 (prostate tumor cell line; CD44 positive; CD44 +ve), MDA231 (breast tumor cell line; CD44 +ve), HT29 (Colorectal tumor cell line; CD44 +ve), MCF-7 (breast tumor cell line; CD44 negative; CD44 −ve) and DU145 (prostate tumor cell line; CD44 −ve) were plated into individual chambers on a glass slide and grown to 90% confluence overnight. The medium was removed and the monolayers wounded. […] The monolayers were incubated for 24 h and then fixed in 4% PBS buffered paraformaldehyde.
# The extent of “wound” closure was blindly assessed microscopically by an independent investigator and quantified using a calibrated eyepiece graticule (1 mm/100 μm graduation) at 20× magnification (Olympus BX 50). The extent of closure in the FKBP-L treated slides was compared to time matched sham treated controls and the % inhibition of wound closure compared to time matched controls calculated.
# PC3 cells were transfected for 72 h with either sicontrol non-targeting siRNA (SCR siRNA) (Dharmacon, Cat #D-001210-01-05) or CD44 targeted siRNA (CD44siRNA) (Dharmacon, Cat #009999). Briefly, 1.2×10^6 PC3 cells were seeded into two P90 dishes and incubated at 37° C. for 24 h. To transfect, 150 μl of the either sicontrol non-targeting siRNA or CD44 targeting siRNA (2 μM) was added to 450 μl of serum free medium (Tube 1). […] The monolayer was fixed after a further 24 h and the extent of wound closure was blindly assessed using a calibrated graticule. Percent inhibition of wound closure in FKBP-L-treated monolayers compared to untreated monolayers was calculated. […]
Molecule,IC50 [1],"vessel development after addition at day seven ([1]; 10^−9 M added after vessels had developed for seven days, vs time matched controls)","vessel development, exposure from initial embedding ([1]; medium supplemented from embedding, seven days)","vessel development after removal of the peptide ([1]; supplemented medium removed after seven days, fresh medium added)","effect on tumor cell migration ([2]; 10^−14-10^−7 M, 24 h)","inhibition of number of vessels formed ([1]; 500 ngml^−1 (optimal), 8 days)","inhibition of maximum vessel length compared to time matched controls ([1]; 1000 ngml^−1, 8 days)","inhibition of mean vessel length compared to time matched controls ([1]; 1000 ngml^−1, 8 days)","IC50 ([1]; read-out: IC50, number of vessels)",effect on tumor cell migration ([2]; 24 hours),"effect on migration of CD44 siRNA treated cells ([2]; PC3 transfected with CD44 targeted siRNA, 1500 ng/ml, 24 h)","inhibition of migration (wound closure) compared to untreated monolayers ([2]; PC3 transfected with non-targeting SCR siRNA, 1500 ng/ml, 24 h)"
H-QIRQQPRDPPTETLELEVSPDPAS-OH [FKBP-L 24mer],0.0002 nM,complete inhibition of vessel development,almost completely inhibited vessel development,continued growth of vessels,can inhibit,–,–,–,–,–,–,–
"full length recombinant FKBP-L: recombinant full length his-tagged FKBP-L protein (SEQ ID NO: 1) expressed in BL21 (DE3) (protein, listed as Homo sapiens, His tag) MRGSHHHHHHGMASMTGGQQMGRDLYDDDDKDRWGSMETPPVNTIGEKDTSQPQQEWEKNLRENLDSVIQIRQQPRDPPTETLELEVSPDPASQILEHTQGAEKLVAELEGDSHKSHGSTSQMPEALQASDLWYCPDGSFVKKIVIRGHGLDKPKLGSCCRVLALGFPFGSGPPEGWTELTMGVGPWREETWGELIEKCLESMCQGEEAELQLPGHTGPPVGLTLASFTQGRDSWELETSEKEALAREERARGTELFRAGNPEGAARCYGRALRLLLTLPPPGPPERTVLHANLAACQLLLGQPQLAAQSCDRVLEREPGHLKALYRRGVAQAALGNLEKATADLKKVLAIDPKNRAAQEELGKVVIQGKNQDAGLAQGLRKMFG",–,–,–,–,–,65%,70%,63%,1.56 nM,inhibits tumor cell migration in a dose-dependent manner,no effect,21.7%
